The results in this text go back to the DeepSol protein solubility set.

This data set can be described thus: soluble on expression in E. coli; label from the status in PepcDB or PDB records.
Consider “GPGSMIGLYRVVQFVHLTFFSTGHDLKRRYSKAGDWAVVTGGTEGIGRAVALDLANRGFNVCVISRTQSKLDEVVAEIEKCGTRGHSIAFDFATAGEAEYKMLFAKLDSLAVGLLVNNVGVNYTYANYFDEADVVDDLRIIKVNCEATTRMTKFFAPRMKARRAGGIVLLGSFSAVTPAPLLATYAGTKAFNVSFGDALFYELKKFGVDVLVVTPNLVVSRMTQGASTRAPKETFLTVGAAAMARQTLNQLGVVNRTAGHRNHIIIEAIARLLPESLRGEKMLAMHESIKKRAERKAKQ”, for which the “soluble on expression in E. coli” value is recorded as “not soluble”.
Regarding “MGSDKIHHHHHHMQIDKQQVGNRIHQLRIAAGLSMAKLASAIGLAGKSTINDWEKGRTLANADRLAKVAAYFDVSTNYLLYGSLTEYVTAVFQNGGLNHSEFNVLLWEYVDLTTTNPNILSSDLFSSASQTEQGVSDPTKIAAALITPTINNAIRQIVPEIVQHYQQTTTYPEPQAVIQAGCYVFRHRIQIIRRTFTGKYNRIVRLLDNVDLYEKLQPDDDLKAYLNQTTGPKTQVQNGYSLDEKYQRQMNKVITEFHQALNRINDAYQAELMACGQGQAHSAAD”, the “soluble on expression in E. coli” value is given as “not soluble”.
For the sequence “MGQNQFRWSNEQLREHVEVIDGTRSPHIVLRNATYLNSYIREWMQANIWIYDDRIIYVGEKLPEQLHECEVIDCDGKYVVPSYIEPHAHPYQLYNPETLANHAMQFGTTTFINDNLTLFFTLKRELEHHHHHH”, the “soluble on expression in E. coli” value is listed as “not soluble”.
Regarding “MKKIAIIGGGIIGMTLANYLDPQKFDITVYDEGLGQATKASAGIISPWLSKRRNKKWYQLAREGAALFPKLVKDFQLTEDIYRQSGTVILRPAAALADLAHLAEERKQTAPEIGEITMLSAVQTAKFLPLLKETPSLFISGGGRLDGPAYLNHLQKRAEAKGVTFCSQRAHFRQLNQGWEIVTNSEKKSVDFLALTPGPHLKELLTTLNLSVDIRPQKGQLLVFETPFTNSQQWPVAMLDGEADLIPFNQGKILLGATHENEQAWDLEETVSAFQQLTSGTAPFLKEAEQLFKQPMHYRVGTRAYTSDFAPFFGPLPEMPHLVVASGLGSSGLTTGPFIGYQLAEYFNTGAFKGELYQKPLSQYVKNNPSLLEHHHHHH”, the “soluble on expression in E. coli” value is “soluble”.
Turning to “MAHHHHHHMMQPHSQTRAFYCCDDEDKEGTDELLGELLFGADGRRGTDLSSTRCPPPAAPPASLDIAAPASAAATGSGAELPRLRYSRPPPHLTQTTLDLGHAEPTMATRCLLCRMLYSPENDEDAALHRRFCRGGRLRRRDRGPYDAPSSFTGACRSRRARTETAASPLASLSSPAAVAVHMLEELNGAGLGHSPSPLVANTTATVRRGGPRRRESGARGVAKATYTATDTLNTAADATVSLCTCVLRPRSSSSSSPHLSSPLAVFRISLNACGVADSKGGCTALRLLELLDFTPVVLRAAAERDVAPQTASSSVLCGNVPVVPSVRDSAASTVHVVCVVDTVLRLLLCAVVGEPRSREQDPELCVERRADGATVCSTRRNFTHGDVAGLWVLSPAELSAAQTAWEKSTAAPFASTRQALEVFFGTRAGGGAPSSAQSHAAHVTEKAHERCQQAAGVALHALAQYLVYGSSLCPSRQLSYSQAALAAAERMGAGFMEQCLAVASSCYLAGATPTPREDVGELQPLYIHGDSDDGGSDSDDANEDAKGVIGE”, the “soluble on expression in E. coli” value is on record as “not soluble”.
Then “MRDMIYGEMALVSHTHPAAVGSTTCYEKNQQKQQQVQQIPTQPQVAHVSSNAILAAAQPFYPPPVQDSQPDRPIGYGAFGVVWSVTDPRSGKRVALKKMPNVFQNLASCKRVFREIKMLSSFRHDNVLSLLDILQPANPSFFQELYVLTELMQSDLHKIIVSPQALTPDHVKVFVYQILRGLKYLHTANILHRDIKPGNLLVNSNCILKICDFGLARTWDQRDRLNMTHEVVTQYYRAPELLMGARRYTGAVDIWSVGCIFAELLQRKILFQAAGPIEQLQMIIDLLGTPSQEAMKYACEGAKNHVLRAGLRAPDTQRLYKIASPDDKNHEAVDLLQKLLHFDPDKRISVEEALQHRYLEEGRLRFHSCMCSCCYTKPNMPSRLFAQDLDPRHESPFDPKWEKDMSRLSMFELREKMYQFVMDRPALYGVALCINPQSAAYKNFASSSVAQASELPPSPQAW”, with “not soluble”; and “MASAVQAQHNVSDVSRMNVLFLMADDMRPELGCYGVEAVKTPNMDRLASSGVLFQNAYCNVPVSGASRASLLTGVYPHYPDRFVNFSAYASKDCPEAIPLSGWFTKNGYHTVSDGKVFHHMSDHAASWSEPPYRNHPDGYDVYWAEYNKWELWMNSESGKTINPKTMRGPFCESADVPDTAYDDGKLAERAIRDLRRMKEMNKPFFLACGFWKPHLPFNAPKKYWDLYKREEIPLASNRFRPEGLPEQVRNSSEIYAYARVTDTGDADFQREVKHGYYACLSYVDAQIGKVLDALDELGLAENTIVVLLGDHGWNLGEHDFVGKHNLMDRSTHVPLIIRVPGMKKGKTRSMVEFVDLYPTLCELCQIPQPAEQLDGQSFAKVFSNLKAKTKDEVYIQWEGGDNAVDQRFSYAEWMKGDVKKASMLFDHRIDKEENKNRVNEKKYKSKVESLSSFIKVKKSSLKKLEHHHHHH”, with “not soluble”.
Regarding “KVMMPKVEERDDSEAPKAFFSEYEICNPALDGKSVREVALLLKRPFVITRVWHNGKVEIPTSDMILYFGDHILAVSGEEDTSQLEILFGKREMKDWNRPDIDWNSVDKQLVSRRLVITRPKLNGVRLGMLKIRNLYGVNISRVDRAGVELLPDRDLRLQLGDRLTVVGEGKAVERVAEILGDEVKQLDNPH”, the “soluble on expression in E. coli” value is reported as “not soluble”.
For “MGSDKIHHHHHHMTTGKKVARRKLSLLELASELDNVSKACRIMGYSRQQFYEIRRNYQTFGAEGLVDRLPGPREPHPNRVDEATEDRILAYSLEFPTHGPVRVAQQLVLQGVQVSSGGVRGVWSRNGMLTRHERLLRLERHVRDTGIALNDDQVRTLERFSPEFRERHIETRCSGDLVAVDTFFVGTLKGVGKIYLQSAIDCHSRYAFGRLYTSKLPVTAVHMLNESVLPFFEEHDTPVVTVLSDNGREFCGRPDRHPYELFLQLENIEHRTTRVRRPQSNGFVERLHRTLLDEHFRIQGRKNWYESLDEMQADLDAYLRHYNHERAHQGRNMSGRTPYQAFLDSRPEGQPKEDNEGHYAA”, the “soluble on expression in E. coli” value is listed as “not soluble”.
In the case of “MSLDWFTVDDSVLRVALVFPLQGSAGIFGPTCELCARLAAEEVNRAGGVLGKELRLLPVDGGAPPREIADRVAALVDLGVVQGVTGWHISSVRQALAPRIAHRVPYVYTALYEGGEHTAGVFLTSETPRDQLRPAMRLLARERGVRRWFVIGNDYVWPRRTARAAHSYARECGGSIGGEVYLPLGTHDFEPVLRRIERSDADAVLMLLVGSDAVRFNRAFAAAGLDGRCLRLSTLMDENMLLASGPAATADLYSTAGFFASLANQDTLDFHGRYAARYGVEAPALGSLGESCYEGVLLLAALIGRAGTLEVSAIGAAADTVSYEGPRGLLRLRGGHVRQRIYLARADGLDFDVVAELDLHSSRPEGHHHHHH”, the “soluble on expression in E. coli” value was “not soluble”.
The same measure for NGAFFCNECDCRFSEEASLKRHTLQTHSDK: “soluble”; for “MKIINLQFPNKYSAKKKEFVLAMGYFDGLHLGHRAVIQQAKRIADKQHLKLALLTYSQSPAGFYVNDPVLKVPILPFRQKMQMLEKLGVDTIFLIDYNLTFGSQSPEDYVDNYLAKLGASVVVAGFDHTYGSLKDKADMKHLPRYANGRFEVYTVRECSDYFGKISSTRIRRLLSEGDLQAVNELLGYQFQTVGFVVHGNQIGRRIGFPTANQALEEKQLLPKSGVYAVRTKIVTGPLAGRSFNGMASIGRNETFGSDNPITIEINLFDFSADVYDEEIIVYWISFLREQVKYANAEALIDQLKQDRIDSLDLLKEIPKSKNYS”: “not soluble”; for “GSGYVFGGFIRADIKKWYIQPNIYYMYNSSSIDVNQTSTDVKSKSVNGDVLLGYRFFKFTDLTYLRLFAGPGYSNINTLKYDSCTSDYSTDNILLNAGVGLDFWKLTFDLKYQRGLTDIDKSSNTMHTSLFMLTAGFKIL”: “not soluble”.
“MSRGPSSAVLPSALGSRKLGPRSLSCLSDLDGGVALEPRACRPPGSPGRAPPPTPAPSGCDPRLRPIILRRARSLPSSPERRQKAAGAPGAACRPGCSQKLRVRFADALGLELAQVKVFNAGDDPSVPLHVLSRLAINSDLCCSSQDLEFTLHCLVPDFPPPVEAADFGERLQRQLVCLERVTCSDLGISGTVRVCNVAFEKQVAVRYTFSGWRSTHEAVARWRGPAGPEGTEDVFTFGFPVPPFLLELGSRVHFAVRYQVAGAEYWDNNDHRDYSITCRNHALHMPRGECEESWIHFI”: the “soluble on expression in E. coli” value was “soluble”.
